Source: US20240425837A1 (Novo Nordisk, published 2024)
No end group written: not given here.

What was measured:
Experiment in all cases: ELISA, biotinylated 12-mer peptide on streptavidin, 2 ug/mL FLAG-tagged VHH, anti-FLAG-HRP
[1] = target: T1, FX activation peptide 12-mer NQTQPERGDNNL (SEQ ID NO:731) (human)
T1 peptide: NQTQPERGDNNL-biotin
Method: (§1) To determine whether the binding epitope of the anti-FX VHH polypeptide designated “cmpd #1” are located inside the activation peptide (AP) of human FX (SEQ ID NO:2), an ELISA assay was setup. 41 unique 12-mer peptide fragments spanning the 52 residues of the activation peptide with one amino acid spacing were immobilized in microtiter plate wells followed by incubation with the VHH polypeptide to be tested, and detection of bound ligand was performed by addition of a secondary HRP-labelled antibody.
(§2) The peptides were C-terminally conjugated to biotin and 50 μL of 1 μg/mL peptide solution was used for immobilization in discrete wells of the microtiter plate which was pre-coated with 1 μg/mL streptavidin. Each well was washed with washing buffer (10 mM Tris, 150 mM NaCl, 2.5 mM CaCl₂, 0.05% Tween 20, pH 8.60) followed by addition of 50 μL of 2 μg/mL FLAG-tagged anti-FX VHH polypeptide or IgG antibody to be tested. After 1 hour non-bound VHH polypeptide was washed off using washing buffer.
(§3) Bound anti-FX activation peptide ligand was detected by first binding a HRP-labelled secondary antibody (for FLAG-tagged VHH polypeptide: Anti-FLAG mAb M2-Peroxidase (HRP) (Sigma Aldrich, US) for 1 hour, and then adding 100 μL TMB-1 ELISA substrate (Kem-En-Tec Diagnostics, Denmark).

[2] = target: T2, FX activation peptide 12-mer ATSSSGEAPDSI (SEQ ID NO:697) (human)
T2 peptide: ATSSSGEAPDSI-biotin
Method: as §1, §2, §3

[3] = target: T3, FX activation peptide 12-mer YDAADLDPTENP (SEQ ID NO:713) (human)
T3 peptide: YDAADLDPTENP-biotin
Method: as §1, §2, §3

[4] = target: T4, FX activation peptide 12-mer DSITWKPYDAAD (SEQ ID NO:706) (human)
T4 peptide: DSITWKPYDAAD-biotin
Method: as §1, §2, §3

[5] = target: T5, FX activation peptide 12-mer TENPFDLLDFNQ (SEQ ID NO:721) (human)
T5 peptide: TENPFDLLDFNQ-biotin
Method: as §1, §2, §3

[6] = target: T6, FX activation peptide 12-mer QTQPERGDNNLT (SEQ ID NO:732) (human)
T6 peptide: QTQPERGDNNLT-biotin
Method: as §1, §2, §3

[7] = target: T7, FX activation peptide 12-mer ENPFDLLDFNQT (SEQ ID NO:722) (human)
T7 peptide: ENPFDLLDFNQT-biotin
Method: as §1, §2, §3

[8] = target: T8, FX activation peptide 12-mer TWKPYDAADLDP (SEQ ID NO:709) (human)
T8 peptide: TWKPYDAADLDP-biotin
Method: as §1, §2, §3

[9] = target: T9, FX activation peptide 12-mer DPTENPFDLLDF (SEQ ID NO:719) (human)
T9 peptide: DPTENPFDLLDF-biotin
Method: as §1, §2, §3

[10] = target: T10, FX activation peptide 12-mer EAPDSITWKPYD (SEQ ID NO:703) (human)
T10 peptide: EAPDSITWKPYD-biotin
Method: as §1, §2, §3

[11] = target: T11, FX activation peptide 12-mer APDSITWKPYDA (SEQ ID NO:704) (human)
T11 peptide: APDSITWKPYDA-biotin
Method: as §1, §2, §3

[12] = target: T12, FX activation peptide 12-mer ITWKPYDAADLD (SEQ ID NO:708) (human)
T12 peptide: ITWKPYDAADLD-biotin
Method: as §1, §2, §3

[13] = target: T13, FX activation peptide 12-mer FNQTQPERGDNN (SEQ ID NO:730) (human)
T13 peptide: FNQTQPERGDNN-biotin
Method: as §1, §2, §3

[14] = target: T14, FX activation peptide 12-mer SSSGEAPDSITW (SEQ ID NO:699) (human)
T14 peptide: SSSGEAPDSITW-biotin
Method: as §1, §2, §3

[15] = target: T15, FX activation peptide 12-mer VAQATSSSGEAP (SEQ ID NO:694) (human)
T15 peptide: VAQATSSSGEAP-biotin
Method: as §1, §2, §3

[16] = target: T16, FX activation peptide 12-mer DAADLDPTENPF (SEQ ID NO:714) (human)
T16 peptide: DAADLDPTENPF-biotin
Method: as §1, §2, §3

[17] = target: T17, FX activation peptide 12-mer TQPERGDNNLTR (SEQ ID NO:733) (human)
T17 peptide: TQPERGDNNLTR-biotin
Method: as §1, §2, §3

[18] = target: T18, FX activation peptide 12-mer DLDPTENPFDLL (SEQ ID NO:717) (human)
T18 peptide: DLDPTENPFDLL-biotin
Method: as §1, §2, §3

B1: Cmpd #1 (monovalent anti-FX VHH polypeptide, VHH-1.1) (VHH)
VHH: EVQLVESGGGLVQPGGSLRLSCAASGSIGAFDAMGWYRQAPGKQRELVAGIMVSRGNTNYTDSVKGRFTISRDNAKNTVYLQMNSLKPEDTAVYYCKAVKRPGPGYLEVWGQGTLVTVSS
notes: no protractor; FLAG-tagged in the peptide ELISA
- ELISA signal normalized relative to the background signal [1]: 0.92 fold of background
- ELISA signal normalized relative to the background signal [2]: 0.98 fold of background
- ELISA signal normalized relative to the background signal [3]: 0.87 fold of background
- ELISA signal normalized relative to the background signal [4]: 1.08 fold of background
- ELISA signal normalized relative to the background signal [5]: 4.84 fold of background
- ELISA signal normalized relative to the background signal [6]: 0.88 fold of background
- ELISA signal normalized relative to the background signal [7]: 4 fold of background
- ELISA signal normalized relative to the background signal [8]: 1.13 fold of background
- ELISA signal normalized relative to the background signal [9]: 4.16 fold of background
- ELISA signal normalized relative to the background signal [10]: 0.97 fold of background
- ELISA signal normalized relative to the background signal [11]: 1.06 fold of background
- ELISA signal normalized relative to the background signal [12]: 1.1 fold of background
- ELISA signal normalized relative to the background signal [13]: 1 fold of background
- ELISA signal normalized relative to the background signal [14]: 0.86 fold of background
- ELISA signal normalized relative to the background signal [15]: 1.02 fold of background
- ELISA signal normalized relative to the background signal [16]: 0.88 fold of background
- ELISA signal normalized relative to the background signal [17]: 1.05 fold of background
- ELISA signal normalized relative to the background signal [18]: 1 fold of background
